Measured values reported in the Human Domainome abundance scans (Beltran et al. 2025).

B1: Formin-binding protein 4, residues 200 to 261; numbered along this chain, Q8N3X1 (parent)
chain: SGWQYDTQCSLAGVGIEMGDWQEVWDENTGCYYYWNTQTNEVTWELPQYLATQVQGLQHYQP

Variants of: B1
Experiment: abundance fitness (aPCA) (normalised: wild type 0, dead -1); higher = more abundant; growth selection in yeast, the domain comes from the species named
Conditions: Homo sapiens

Abundance fitness, by site and new letter:
W35: P -1.04, L -0.112, F 0.112, K 0.355, S 0.066, T 0.172, D -0.159, R 0.184, Y -0.271, G -0.297, M -0.189, E 0.328, H 0.166, A 0.196, V -0.104, I 0.09
T37: E -0.297, C 0.089, A 0.061, D -0.171, F -0.151
Y34: T -0.847, M -0.962, L -0.796, H -0.873, C -0.927, S -0.862, Q -0.946, K -0.726, V -0.669, D -1, W -0.449, P -1.21, G -0.664, E -0.791, F -0.18, A -0.866
C31: L -0.183, V -0.129, F 0.083, P -0.742, W -0.662, R 0.165, Y -0.063, I -0.326, K 0.066, E -0.422, A 0.01, S 0.031, T -0.094, G -0.125, H -0.017, Q -0.038, N 0.107, M -0.127
T29: Y 0.019, A 0.162, W -0.362, P -0.172, R 0.117, C -0.066, S 0.123, F -0.074, H -0.017, K 0.311, G -0.147, M -0.1, N -0.086, Q -0.125, L -0.036, I -0.382
Y33: C -0.213, V -0.447, R -0.201, F -0.281, L -0.477, G -0.576, S -0.212, M -0.316, I -0.566, W -0.52, D -0.706, T -0.335, Q -0.389, A -0.691, H -0.169, P -0.676, E -0.458, K 0.016
G30: V -0.191, Y -0.473, P -0.219, N -0.15, A -0.095, H -0.718, K 0.129, Q 0.049, W -0.23, I 0.052, S 0.006, R 0.078, F -0.381, L -0.4
N36: T -0.993, M -0.603, W -0.814, D -0.612, C -0.236, V -1.02, G -0.64, K -0.663, R -0.657, P -0.897, Y -0.961, Q -0.121, S -0.553, F -0.744, E -0.287, L -0.861, A -0.645, I -1.13
Y32: F -0.009, K -1.02, I -0.3, R -0.792, V -0.677, L -0.633, W -0.543, N -0.487, C -0.478, P -0.417, T -0.773, G -0.678, A -0.502, Q -0.818, H -0.16, M -0.511, E -0.673, S -0.567
N28: K 0.108, P -0.133, M -0.32, S -0.151, I 0.281, T -0.153, H -0.229, Y -0.245, C -0.022, F -0.329, D -0.002, V -0.507, E -0.07, W -0.291, L -0.233, G 0.073
E27: W -0.601, V -0.373, T -0.199, R -0.112, M -0.381, N -0.127, Q -0.168, Y -0.288, S -0.187, P -0.349, K 0.076, L -0.429
